18 molecules from publication PMC6555819, “Comprehensive study of nuclear receptor DNA binding provides a revised framework for understanding receptor specificity” can be followed below.

One series has as its target VDR:RXRa (Homo sapiens, UniProt P11473;P19793 full;full). In words: no ligand; PBM; 270 nM : 90 nM RXRa; PBS pH 7.4, 2% milk, 0.02% Triton X-100, 1 mM DTT, BSA, 0.4 mg/ml salmon testes DNA. To be noted: tags: His kept;His cleaved; copies: 1;1; label: surface-attached array probe. The essentials:
(§1)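 The probes on custom Agilent 4×180K protein-binding microarrays were double-stranded, with 34-nt variable regions bearing direct-repeat seeds, single-nucleotide variants, half-site ablations and random human genomic background sequences. Incubation lasted 1 h with ligand-free nuclear receptor dimers in PBS pH 7.4, 2% milk, 0.02% Triton X-100, 1 mM DTT, 0.2 mg/mL BSA and 0.4 mg/ml salmon testes DNA. Antibodies against each partner (one per run) detected bound dimers, and fluorescence scans were regression-normalized. Binding z-scores take the random background probes as reference.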

In a further series the target is PXR:RXRa (Homo sapiens, UniProt O75469;P19793 full;full). Described as above. To be noted: tags: His kept;His cleaved; copies: 1;1; label: surface-attached array probe. In outline:
as §1

The target of a further series is THRa:RXRa (Homo sapiens, UniProt P10827;P19793 full;full). The series is described as follows: no ligand; PBM; 90 nM : 90 nM RXRa; PBS pH 7.4, 2% milk, 0.02% Triton X-100, 1 mM DTT, BSA, 0.4 mg/ml salmon testes DNA. The settings on record: tags: His kept;His cleaved; copies: 1;1; label: surface-attached array probe.
In another series the target is LXRa:RXRa (Homo sapiens, UniProt Q13133;P19793 full;full). The series is described as follows: no ligand; PBM; 270 nM : 90 nM RXRa; PBS pH 7.4, 2% milk, 0.02% Triton X-100, 1 mM DTT, BSA, 0.4 mg/ml salmon testes DNA. The settings on record: tags: His kept;His cleaved; copies: 1;1; label: surface-attached array probe. In outline: as §1
The target of another series is LXRb:RXRa (Homo sapiens, UniProt P55055;P19793 full;full). The series is described as above. To be noted: tags: His kept;His cleaved; copies: 1;1; label: surface-attached array probe. The essentials:
as §1

Another series has as its target RARg:RXRa (Homo sapiens, UniProt P13631;P19793 full;full). Described as above. The settings on record: tags: His kept;His cleaved; copies: 1;1; label: surface-attached array probe. The essentials:
as §1

The target of a further series is FXR:RXRa (Homo sapiens, UniProt Q96RI1;P19793 full;full). The series is described as above. To be noted: tags: His kept;His cleaved; copies: 1;1; label: surface-attached array probe. The essentials: as §1
Another series addresses RARb:RXRa (Homo sapiens, UniProt P10826;P19793 full;full). The description is as above. The settings on record: tags: His kept;His cleaved; copies: 1;1; label: surface-attached array probe. The essentials:
as §1

Another series addresses PPARa:RXRa (Homo sapiens, UniProt Q07869;P19793 full;full). The description is as above. To be noted: tags: GST kept;His cleaved; copies: 1;1; label: surface-attached array probe. The essentials:
as §1

LXRa:RXRa, sequence (Q13133 whole entry, chain 1 of 2): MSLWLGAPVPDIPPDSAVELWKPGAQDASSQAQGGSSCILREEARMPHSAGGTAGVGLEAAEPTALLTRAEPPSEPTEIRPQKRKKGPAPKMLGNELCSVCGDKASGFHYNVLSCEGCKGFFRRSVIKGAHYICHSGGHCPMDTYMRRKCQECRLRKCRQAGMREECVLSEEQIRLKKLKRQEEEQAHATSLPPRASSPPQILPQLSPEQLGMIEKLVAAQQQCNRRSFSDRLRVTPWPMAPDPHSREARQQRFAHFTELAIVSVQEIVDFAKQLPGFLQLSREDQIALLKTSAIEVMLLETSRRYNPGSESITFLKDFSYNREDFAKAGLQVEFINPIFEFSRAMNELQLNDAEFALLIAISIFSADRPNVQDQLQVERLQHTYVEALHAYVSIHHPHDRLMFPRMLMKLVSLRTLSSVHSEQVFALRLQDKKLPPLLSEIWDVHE
LXRa:RXRa, sequence (P19793 whole entry, chain 2 of 2): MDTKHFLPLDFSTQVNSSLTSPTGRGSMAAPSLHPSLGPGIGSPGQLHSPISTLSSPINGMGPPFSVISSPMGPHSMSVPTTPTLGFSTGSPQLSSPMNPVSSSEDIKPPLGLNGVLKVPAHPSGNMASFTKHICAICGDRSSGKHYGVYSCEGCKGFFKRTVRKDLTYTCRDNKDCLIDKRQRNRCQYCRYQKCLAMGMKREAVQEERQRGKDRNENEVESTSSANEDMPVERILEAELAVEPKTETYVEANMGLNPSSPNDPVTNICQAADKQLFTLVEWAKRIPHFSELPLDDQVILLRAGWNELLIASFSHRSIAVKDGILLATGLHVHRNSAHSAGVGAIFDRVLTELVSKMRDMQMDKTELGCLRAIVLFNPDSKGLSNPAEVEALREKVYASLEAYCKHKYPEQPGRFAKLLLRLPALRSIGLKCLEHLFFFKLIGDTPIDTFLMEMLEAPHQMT
VDR:RXRa, sequence (P11473 whole entry, chain 1 of 2): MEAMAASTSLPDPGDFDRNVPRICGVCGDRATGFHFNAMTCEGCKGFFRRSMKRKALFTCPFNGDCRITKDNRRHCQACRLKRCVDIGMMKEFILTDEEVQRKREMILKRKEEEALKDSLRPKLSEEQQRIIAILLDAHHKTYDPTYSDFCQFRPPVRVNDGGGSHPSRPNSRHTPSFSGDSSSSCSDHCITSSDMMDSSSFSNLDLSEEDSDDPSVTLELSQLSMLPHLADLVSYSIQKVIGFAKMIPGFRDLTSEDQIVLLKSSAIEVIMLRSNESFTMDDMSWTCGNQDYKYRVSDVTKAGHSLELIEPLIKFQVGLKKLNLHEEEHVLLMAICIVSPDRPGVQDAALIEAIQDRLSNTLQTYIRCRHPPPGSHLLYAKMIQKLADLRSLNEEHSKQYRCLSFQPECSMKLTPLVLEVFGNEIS
VDR:RXRa, sequence (P19793 whole entry, chain 2 of 2): as the sequence (P19793 whole entry, chain 2 of 2) above
PXR:RXRa, sequence (O75469 whole entry, chain 1 of 2): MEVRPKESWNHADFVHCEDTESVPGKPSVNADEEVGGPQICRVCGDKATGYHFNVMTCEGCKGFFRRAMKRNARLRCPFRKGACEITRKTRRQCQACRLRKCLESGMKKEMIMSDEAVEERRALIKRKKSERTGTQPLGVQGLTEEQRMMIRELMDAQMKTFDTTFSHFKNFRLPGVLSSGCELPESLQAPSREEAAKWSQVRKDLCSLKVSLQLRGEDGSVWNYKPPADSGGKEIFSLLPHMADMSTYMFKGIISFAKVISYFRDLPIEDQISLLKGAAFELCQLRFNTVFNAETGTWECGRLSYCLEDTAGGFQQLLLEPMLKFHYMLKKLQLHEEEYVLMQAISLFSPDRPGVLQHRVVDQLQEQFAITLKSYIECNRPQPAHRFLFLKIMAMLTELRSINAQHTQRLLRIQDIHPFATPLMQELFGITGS
PXR:RXRa, sequence (P19793 whole entry, chain 2 of 2): as the sequence (P19793 whole entry, chain 2 of 2) above
LXRb:RXRa, sequence (P55055 whole entry, chain 1 of 2): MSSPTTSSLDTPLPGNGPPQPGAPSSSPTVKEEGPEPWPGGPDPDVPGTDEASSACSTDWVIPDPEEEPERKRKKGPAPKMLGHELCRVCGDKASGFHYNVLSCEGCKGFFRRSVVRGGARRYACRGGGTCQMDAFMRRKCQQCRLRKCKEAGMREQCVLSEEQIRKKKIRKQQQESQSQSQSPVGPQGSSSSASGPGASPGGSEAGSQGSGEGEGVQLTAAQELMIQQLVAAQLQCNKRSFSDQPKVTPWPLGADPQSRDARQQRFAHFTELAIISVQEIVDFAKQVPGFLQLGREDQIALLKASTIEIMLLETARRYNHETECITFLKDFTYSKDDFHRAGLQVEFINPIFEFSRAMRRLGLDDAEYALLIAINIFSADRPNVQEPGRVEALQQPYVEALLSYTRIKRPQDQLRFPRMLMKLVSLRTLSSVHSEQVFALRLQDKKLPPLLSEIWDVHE
LXRb:RXRa, sequence (P19793 whole entry, chain 2 of 2): as the sequence (P19793 whole entry, chain 2 of 2) above
THRa:RXRa, sequence (P10827 other isoform, or with tags, fused parts or gaps, chain 1 of 2): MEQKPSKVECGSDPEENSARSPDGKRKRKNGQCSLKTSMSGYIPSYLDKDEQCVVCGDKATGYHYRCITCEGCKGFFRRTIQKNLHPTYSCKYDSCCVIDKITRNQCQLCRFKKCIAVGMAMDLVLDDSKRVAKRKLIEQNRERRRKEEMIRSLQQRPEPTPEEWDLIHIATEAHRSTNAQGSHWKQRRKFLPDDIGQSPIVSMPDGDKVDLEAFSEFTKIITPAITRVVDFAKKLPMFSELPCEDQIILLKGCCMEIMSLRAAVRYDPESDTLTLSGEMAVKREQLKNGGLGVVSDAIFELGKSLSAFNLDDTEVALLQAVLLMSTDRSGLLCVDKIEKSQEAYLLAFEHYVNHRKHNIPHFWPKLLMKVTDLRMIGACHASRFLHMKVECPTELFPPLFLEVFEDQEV
THRa:RXRa, sequence (P19793 whole entry, chain 2 of 2): as the sequence (P19793 whole entry, chain 2 of 2) above

B1: NRC3_wobSeed118_DR4_G13C_o1 (dsDNA)
DNA 1: GCTTACCAAGGTCAGCTGAGGTCGTTGATCCAACTCGCGATTGACAGCGTAGAATGAAGG
DNA 2: CCTTCATTCTACGCTGTCAATCGCGAGTTGGATCAACGACCTCAGCTGACCTTGGTAAGC
B1: the binding signal with VDR:RXRa was 6.65 PBM z-score against 500 random probes; in the series with PXR:RXRa, 6.89 PBM z-score against 500 random probes; with THRa:RXRa, 5.55 PBM z-score against 500 random probes.

B2: NRC3_random_hg19_185_o1 (dsDNA)
DNA 1: GCTAGTGAGTGAGTTCTCACAAGAAATGGTTGTTTAGCGATTGACAGCGTAGAATGAAGG
DNA 2: CCTTCATTCTACGCTGTCAATCGCTAAACAACCATTTCTTGTGAGAACTCACTCACTAGC
Take B2: the binding signal with PXR:RXRa was -0.01 PBM z-score against 500 random probes; with THRa:RXRa, -0.23 PBM z-score against 500 random probes.

B3: NRC3_random_hg19_439_o1 (dsDNA)
DNA 1: GCTATGGTTTGGCTGTGTCTCCATTCAAATCTCAACGCGATTGACAGCGTAGAATGAAGG
DNA 2: CCTTCATTCTACGCTGTCAATCGCGTTGAGATTTGAATGGAGACACAGCCAAACCATAGC
Consider B3, for which the binding signal with PXR:RXRa was 0.5 PBM z-score against 500 random probes; with THRa:RXRa, 0.36 PBM z-score against 500 random probes.

B4: NRC3_wobSeed113_DR4_G15C_o1 (dsDNA)
DNA 1: GCATATGTAGGTTACCTGGGGTCATTCAGACTAGGCGCGATTGACAGCGTAGAATGAAGG
DNA 2: CCTTCATTCTACGCTGTCAATCGCGCCTAGTCTGAATGACCCCAGGTAACCTACATATGC
Regarding B4, the binding signal is 8.75 PBM z-score against 500 random probes in the series with LXRa:RXRa, 8.08 PBM z-score against 500 random probes with LXRb:RXRa and 5.46 PBM z-score against 500 random probes with THRa:RXRa.

B5: NRC3_random_hg19_109_o1 (dsDNA)
DNA 1: GCTGGTGTTTCATCACTGTGGCAACTTCCCACCTGGGCGATTGACAGCGTAGAATGAAGG
DNA 2: CCTTCATTCTACGCTGTCAATCGCCCAGGTGGGAAGTTGCCACAGTGATGAAACACCAGC
For B5, the binding signal was -0.28 PBM z-score against 500 random probes with PXR:RXRa and -0.41 PBM z-score against 500 random probes with THRa:RXRa.

B6: NRC3_wobSeed98_DR4_T9A_o1 (dsDNA)
DNA 1: GCACTAGTAGGTCAGCTGAGGTCACACACAATTCGGGCGATTGACAGCGTAGAATGAAGG
DNA 2: CCTTCATTCTACGCTGTCAATCGCCCGAATTGTGTGTGACCTCAGCTGACCTACTAGTGC
B6: the binding signal is 6.98 PBM z-score against 500 random probes with VDR:RXRa, 7.12 PBM z-score against 500 random probes in the series with PXR:RXRa and 5.78 PBM z-score against 500 random probes with THRa:RXRa.

B7: NRC3_wobSeed98_DR4_T9G_o1 (dsDNA)
DNA 1: GCACTAGTGGGTCAGCTGAGGTCACACACAATTCGGGCGATTGACAGCGTAGAATGAAGG
DNA 2: CCTTCATTCTACGCTGTCAATCGCCCGAATTGTGTGTGACCTCAGCTGACCCACTAGTGC
For the molecule B7, the binding signal with VDR:RXRa was 6.63 PBM z-score against 500 random probes; in the series with PXR:RXRa it was 6.95 PBM z-score against 500 random probes; in the series with THRa:RXRa, 5.78 PBM z-score against 500 random probes.

B8: NRC3_wobSeed88_DR3_G11T_o1 (dsDNA)
DNA 1: GCTAGCCTAGTTCATGCGGGCCAGTATAGTGTCGGCGCGATTGACAGCGTAGAATGAAGG
DNA 2: CCTTCATTCTACGCTGTCAATCGCGCCGACACTATACTGGCCCGCATGAACTAGGCTAGC
As for B8, the binding signal is 0.09 PBM z-score against 500 random probes with LXRa:RXRa, 0.41 PBM z-score against 500 random probes in the series with RARg:RXRa and 0.14 PBM z-score against 500 random probes in the series with THRa:RXRa.

B9: NRC3_wobSeed49_DR2_T8C_o1 (dsDNA)
DNA 1: GCCAAACCAGGTCAAGAGGTCAAAGTCCGCTTCCCGGCGATTGACAGCGTAGAATGAAGG
DNA 2: CCTTCATTCTACGCTGTCAATCGCCGGGAAGCGGACTTTGACCTCTTGACCTGGTTTGGC
Turning to B9, the binding signal with PXR:RXRa was 6.81 PBM z-score against 500 random probes; with FXR:RXRa, 7.9 PBM z-score against 500 random probes; with THRa:RXRa, 4.82 PBM z-score against 500 random probes.

B10: NRC3_random_hg19_394_o1 (dsDNA)
DNA 1: GCGAGATCGAGACCATCTTGGCTAACACGGTGAAACGCGATTGACAGCGTAGAATGAAGG
DNA 2: CCTTCATTCTACGCTGTCAATCGCGTTTCACCGTGTTAGCCAAGATGGTCTCGATCTCGC
Consider B10, for which the results for the binding signal in the series with PXR:RXRa and in the series with THRa:RXRa were -0.39 PBM z-score against 500 random probes and -0.09 PBM z-score against 500 random probes, respectively.

B11: NRC3_random_hg19_412_o1 (dsDNA)
DNA 1: GCACAACAGATGCTGGAGAGGATATGGAGATCCTTTGCGATTGACAGCGTAGAATGAAGG
DNA 2: CCTTCATTCTACGCTGTCAATCGCAAAGGATCTCCATATCCTCTCCAGCATCTGTTGTGC
In the case of B11, the binding signal is -0.73 PBM z-score against 500 random probes in the series with LXRa:RXRa, -0.81 PBM z-score against 500 random probes with FXR:RXRa, -0.93 PBM z-score against 500 random probes with LXRb:RXRa and -0.82 PBM z-score against 500 random probes in the series with THRa:RXRa.

B12: NRC3_random_hg19_217_o1 (dsDNA)
DNA 1: GCCTCAAACTCCCTTCTTCAGTTTCTGGTAGATCAAGCGATTGACAGCGTAGAATGAAGG
DNA 2: CCTTCATTCTACGCTGTCAATCGCTTGATCTACCAGAAACTGAAGAAGGGAGTTTGAGGC
As to B12, the binding signal was 0.47 PBM z-score against 500 random probes with LXRa:RXRa, -0.02 PBM z-score against 500 random probes in the series with RARb:RXRa and -0.02 PBM z-score against 500 random probes with THRa:RXRa.

B13: NRC3_wobSeed116_DR4_A21G_o1 (dsDNA)
DNA 1: GCAGAATGAGGTTACCAAAGGTCAGGGAAACGCTTGGCGATTGACAGCGTAGAATGAAGG
DNA 2: CCTTCATTCTACGCTGTCAATCGCCAAGCGTTTCCCTGACCTTTGGTAACCTCATTCTGC
In the case of B13, the figures for the binding signal in the series with LXRa:RXRa, in the series with LXRb:RXRa and with THRa:RXRa were 9.08 PBM z-score against 500 random probes, 8.32 PBM z-score against 500 random probes and 5.21 PBM z-score against 500 random probes, respectively.

B14: NRC3_wobSeed136_DR5_C24A_o1 (dsDNA)
DNA 1: GCTAGCCTAGGTCATTCAGGGGCAAGTATAGAAAGCGCGATTGACAGCGTAGAATGAAGG
DNA 2: CCTTCATTCTACGCTGTCAATCGCGCTTTCTATACTTGCCCCTGAATGACCTAGGCTAGC
Regarding B14, the results for the binding signal with LXRa:RXRa, in the series with RARg:RXRa and with THRa:RXRa were 6.65 PBM z-score against 500 random probes, 4.49 PBM z-score against 500 random probes and 5.06 PBM z-score against 500 random probes, respectively.

B15: NRC3_random_hg19_90_o1 (dsDNA)
DNA 1: GCTGAGTATTGTAGATTCATTGTTGAGATTCTAGATGCGATTGACAGCGTAGAATGAAGG
DNA 2: CCTTCATTCTACGCTGTCAATCGCATCTAGAATCTCAACAATGAATCTACAATACTCAGC
Regarding B15, the binding signal is -0.1 PBM z-score against 500 random probes in the series with PXR:RXRa and -0.22 PBM z-score against 500 random probes with THRa:RXRa.

B16: NRC3_random_hg19_176_o1 (dsDNA)
DNA 1: GCCTGCCTGTGTTGGGACTTTGACTCCACATTTCCCGCGATTGACAGCGTAGAATGAAGG
DNA 2: CCTTCATTCTACGCTGTCAATCGCGGGAAATGTGGAGTCAAAGTCCCAACACAGGCAGGC
As to B16, the binding signal with PPARa:RXRa was 0 PBM z-score against 500 random probes; in the series with LXRa:RXRa, -0.07 PBM z-score against 500 random probes; with FXR:RXRa it was -0.18 PBM z-score against 500 random probes; with THRa:RXRa, -0.11 PBM z-score against 500 random probes.

B17: NRC3_wobSeed101_DR4_T23C_o1 (dsDNA)
DNA 1: GCCCTTACGGGTCACTCCAGGTCATAGCATCGGAGTGCGATTGACAGCGTAGAATGAAGG
DNA 2: CCTTCATTCTACGCTGTCAATCGCACTCCGATGCTATGACCTGGAGTGACCCGTAAGGGC
Turning to B17, the binding signal was 8.42 PBM z-score against 500 random probes in the series with LXRa:RXRa, 7.16 PBM z-score against 500 random probes with LXRb:RXRa and 5.34 PBM z-score against 500 random probes with THRa:RXRa.

B18: NRC3_wobSeed142_DR5_G13C_o1 (dsDNA)
DNA 1: GCATACCAAGGTCATCGTGAGGTCGTTGATACTAACGCGATTGACAGCGTAGAATGAAGG
DNA 2: CCTTCATTCTACGCTGTCAATCGCGTTAGTATCAACGACCTCACGATGACCTTGGTATGC
As to B18, the binding signal with RARg:RXRa was 7.52 PBM z-score against 500 random probes; with VDR:RXRa, 7.1 PBM z-score against 500 random probes; with PXR:RXRa, 6.51 PBM z-score against 500 random probes; in the series with THRa:RXRa it was 5.13 PBM z-score against 500 random probes.
